Substitutions are numbered along the chain they refer to. In names and notes the source's numbering stands. Blank lines part the entries; values can stand above or below the molecule they belong to.
Legend:
[1] = molecular target: HMM-mfMSR1 (monkey MSR1 extracellular domain); assay: Biacore surface plasmon resonance binding kinetics of anti-MSR1 mAbs, antibody-capture format; details: analyte HMM-mfMSR1, NB = no binding observed; for kd: * = no dissociation observed, kd manually fixed at 1.00E−05; for ka: antibody-capture format; for Kd: calculated from kinetic rates; for t½: dissociative half-life
Protocol: (§1) Binding affinities and kinetic constants of human anti-MSR1 antibodies for different MSR1 reagents were determined by real-time surface plasmon resonance (Biacore 4000). All binding studies were performed in 10 mM HEPES, 150 mM NaCl, 3 mM EDTA, and 0.05% v/v Surfactant Tween-20, pH 7.4 (HBS-ET) running buffer at 25° C. and 37° C.
(§2) The association rate (ka) and dissociation rate (kd) were determined by fitting the real-time binding sensorgrams to a 1:1 binding model with mass transport limitation using Scrubber 2.0c curve-fitting software. Binding dissociation equilibrium constant (KD) and dissociative half-life (t½) were calculated from the kinetic rates as: […]

[2] = molecular target: T1, His9-hMSR1 (human MSR1 extracellular domain) (Homo sapiens, UniProt P21757); assay: as above; details: analyte His9-hMSR1, NB = no binding observed; for kd: * = no dissociation observed, kd manually fixed at 1.00E−05; for ka: antibody-capture format; for Kd: calculated from kinetic rates; for t½: dissociative half-life
T1 construct: human MSR1 extracellular domain expressed with a N-terminal nonahistidine tag; His9 (nonahistidine) (N); purchased R&D Systems 2708-MS
T1 sequence (P21757 77-451 limits assumed): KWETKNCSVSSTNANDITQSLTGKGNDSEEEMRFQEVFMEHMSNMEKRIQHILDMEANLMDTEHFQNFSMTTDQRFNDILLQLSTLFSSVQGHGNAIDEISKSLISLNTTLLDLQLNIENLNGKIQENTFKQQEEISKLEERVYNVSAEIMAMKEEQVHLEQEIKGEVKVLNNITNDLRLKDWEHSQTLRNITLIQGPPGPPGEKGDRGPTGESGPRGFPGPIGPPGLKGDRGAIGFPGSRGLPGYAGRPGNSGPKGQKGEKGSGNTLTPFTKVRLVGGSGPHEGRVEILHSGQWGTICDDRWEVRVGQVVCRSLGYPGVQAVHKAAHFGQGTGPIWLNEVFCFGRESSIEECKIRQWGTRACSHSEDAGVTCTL
Protocol: as §1, §2

[3] = molecular target: T2, PMA-treated THP-1 cells (endogenously expressed human MSR1) (Homo sapiens, UniProt P21757); assay: Electrochemiluminescence antibody binding assay on MSR1-expressing cells; format: cell-based
T2 construct: endogenous in cells; host or cells: THP-1 cells differentiated with PMA
T2 sequence (P21757 1-451): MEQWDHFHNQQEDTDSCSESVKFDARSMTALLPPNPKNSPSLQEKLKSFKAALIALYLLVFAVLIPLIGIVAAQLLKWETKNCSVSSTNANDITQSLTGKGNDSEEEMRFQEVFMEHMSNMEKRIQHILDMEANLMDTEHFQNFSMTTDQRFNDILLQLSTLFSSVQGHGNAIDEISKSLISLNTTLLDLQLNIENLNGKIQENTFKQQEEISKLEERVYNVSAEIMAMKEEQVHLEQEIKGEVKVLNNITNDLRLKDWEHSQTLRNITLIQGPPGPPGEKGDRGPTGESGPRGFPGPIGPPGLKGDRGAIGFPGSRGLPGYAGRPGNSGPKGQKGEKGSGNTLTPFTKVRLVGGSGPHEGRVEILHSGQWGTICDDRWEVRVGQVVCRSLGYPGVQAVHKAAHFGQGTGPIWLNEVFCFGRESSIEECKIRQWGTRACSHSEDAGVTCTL

[4] = molecular target: T3, MSR1-mediated Dil-AcLDL uptake in HEK293.Myc.hMSR1 cells (Homo sapiens, UniProt P21757); assay: Ligand uptake assay, Dil-AcLDL; format: cell-based; details: 10 μg/mL Dil-AcLDL; for IC50: read-out: Dil-Acetylated LDL IC50; for Dil-Acetylated LDL % Inhibition: maximum inhibition
T3 construct: expressed in transfected cells; host or cells: HEK293 (lentiviral transduction, hygromycin selection)
T3 sequence (P21757 1-451): T2 sequence (P21757 1-451)
Protocol: A bioassay was generated to assess the ability of the exemplary anti-MSR1 antibodies to regulate the uptake of certain MSR1 ligands.
Generation of MSR1-expressing cell lines for assay. […] The resulting cell line, referred to here as “HEK293.Myc.hMSR1”, was selected and maintained in DMEM containing 10% FIBS, NEAA, penicillin/streptomycin, L-glutamine, and 100 μg/mL hygromycin.
Ligand uptake assay. […] After 30 minutes, either oxidized or acetylated low-density lipoprotein (LDL) labeled with 1,1′dioctadecyl-3,3,3′,3′-tetramethylindocarbocyanine perchlorate (referred to as “Dil-OxLDL” or “Dil-AcLDL,” respectively) was added to the cells at a constant concentration of 10 μg/mL. […] Results were analyzed using nonlinear regression (4-parameter logistics) with the Prism 7 program to obtain EC50 and IC50 values. The percentage of inhibition was calculated with the Relative Fluorescent Unit (RFU) values by using the following equation: […]
In the equation, “RFUBaseline” is the fluorescence value from the cells treated with 10 μg/mL ligand without antibodies, “RFUInhibition” is the minimum fluorescence value with for a particular antibody with 10 μg/mL ligand, and “RFUBackground” is the fluorescence value from cells without any ligand or antibodies.

parental HEK293 cells = assay: Electrochemiluminescence antibody binding assay, non-specific binding control cells; format: cell-based, human

Sequence of HMM-mfMSR1 (monkey MSR1 extracellular domain) (as listed by the source): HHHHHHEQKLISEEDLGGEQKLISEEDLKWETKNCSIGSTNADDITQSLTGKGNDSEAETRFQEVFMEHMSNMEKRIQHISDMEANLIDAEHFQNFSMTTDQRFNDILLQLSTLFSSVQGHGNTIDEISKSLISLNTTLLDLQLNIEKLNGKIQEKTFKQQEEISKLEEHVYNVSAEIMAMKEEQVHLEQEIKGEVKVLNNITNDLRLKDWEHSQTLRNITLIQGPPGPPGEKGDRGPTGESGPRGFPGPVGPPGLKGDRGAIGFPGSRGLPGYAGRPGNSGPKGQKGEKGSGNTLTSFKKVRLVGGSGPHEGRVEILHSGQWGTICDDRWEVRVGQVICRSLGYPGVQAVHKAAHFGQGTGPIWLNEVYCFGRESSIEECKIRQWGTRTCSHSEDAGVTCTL

- kd ([1]; 25° C.): 6.39e-05 s⁻¹
- ka ([1]; 25° C.): 274000 M⁻¹ s⁻¹
- Kd ([1]; 25° C.): 0.233 nM
- t½ ([1]; 25° C.): 3.02 h
- kd ([1]; 37° C.): 7.82e-05 s⁻¹
- ka ([1]; 37° C.): 712000 M⁻¹ s⁻¹
- Kd ([1]; 37° C.): 0.11 nM
- t½ ([1]; 37° C.): 2.47 h
- kd ([2]; 25° C.): 1.00E−05* s^−1
- ka ([2]; 25° C.): 477000 M⁻¹ s⁻¹
- Kd ([2]; 25° C.): 0.021 nM
- t½ ([2]; 25° C.): 19.25 h
- kd ([2]; 37° C.): 9.09e-05 s⁻¹
- ka ([2]; 37° C.): 702000 M⁻¹ s⁻¹
- Kd ([2]; 37° C.): 0.13 nM
- t½ ([2]; 37° C.): 2.12 h
- Ratio of 11 nM Antibody Binding Signal (RLU) to isotype control, PMA-treated THP-1 [3]: 42
- IC50 [4]: 3.5 nM
- Dil-Acetylated LDL % Inhibition [4]: 63%
B1: H1H21231N: "anti-MSR1 antibodies ... (21227N, 21231N, 21234N) were produced with the original human Fcγ portion"; "H1H" = human IgG1 Fc (antibody, V domains shown)
VH: EVQLVESGGGLVQPGGSLRLSCAASGFTFSDHYMDWVRQAPGKGLEWVGRTRNKANSHTTEYTASVTGRFTISRDDSRNSLYLQMNSLKTEDTAVYYCVRAGIIGTLFDYWGQGTLVTVSS
VL: DIQMTQFPSSLSASVGDRVTITCRASQSISSFLNWFQQKPGKAPKFLIYAASSLQSGVPSRFSGSGSGTDFTLTISSLQPEDFATYYCQQSYSSPPITFGQGTRLEIKR
modifications: human IgG1 Fc
notes: "anti-MSR1 antibodies ; (21227N, 21231N, 21234N) were produced with the original human Fcγ portion"; "H1H" = human IgG1 Fc

- kd ([1]; 25° C.): 4.41e-05 s⁻¹
- ka ([1]; 25° C.): 1.27e+06 M⁻¹ s⁻¹
- Kd ([1]; 25° C.): 0.0348 nM
- t½ ([1]; 25° C.): 4.37 h
- kd ([1]; 37° C.): 1.00E−05* s^−1
- ka ([1]; 37° C.): 2.76e+06 M⁻¹ s⁻¹
- Kd ([1]; 37° C.): 0.00362 nM
- t½ ([1]; 37° C.): 19.25 h
- kd ([2]; 25° C.): 1.44e-05 s⁻¹
- ka ([2]; 25° C.): 1.2e+06 M⁻¹ s⁻¹
- Kd ([2]; 25° C.): 0.012 nM
- t½ ([2]; 25° C.): 13.3 h
- kd ([2]; 37° C.): 1.85e-05 s⁻¹
- ka ([2]; 37° C.): 2.56e+06 M⁻¹ s⁻¹
- Kd ([2]; 37° C.): 0.00724 nM
- t½ ([2]; 37° C.): 10.4 h
- Ratio of 11 nM Antibody Binding Signal (RLU) to isotype control, PMA-treated THP-1 [3]: 7
- IC50 [4]: 2.1 nM
- Dil-Acetylated LDL % Inhibition [4]: 65%
B2: H1H21227N: "anti-MSR1 antibodies ... (21227N, 21231N, 21234N) were produced with the original human Fcγ portion"; "H1H" = human IgG1 Fc (antibody, V domains shown)
VH: QVQLVQSGAEVKKPGASVKVSCKVSGYTLTELSIHWVRQVPGKGLEWMGGFDPEEGETIFAQEFRDRVTLTEDTSPDTAYMELSSLKSEDAAVYYCTTPRYCNNGICYDYWGQGTLVTVSS
VL: B1 VL with F7S, S31N, F32Y, F36Y, F46L, A50T, P80T, S94N, P95F
modifications: human IgG1 Fc
notes: as for B1
- Ratio of 11 nM Antibody Binding Signal (RLU) to isotype control, HEK293 (parental HEK293 cells): 1

- kd ([1]; 25° C.): 4.03e-05 s⁻¹
- ka ([1]; 25° C.): 1.35e+06 M⁻¹ s⁻¹
- Kd ([1]; 25° C.): 0.0299 nM
- t½ ([1]; 25° C.): 4.78 h
- kd ([1]; 37° C.): 2.42e-05 s⁻¹
- ka ([1]; 37° C.): 2.68e+06 M⁻¹ s⁻¹
- Kd ([1]; 37° C.): 0.00903 nM
- t½ ([1]; 37° C.): 7.95 h
- kd ([2]; 25° C.): 3.79e-05 s⁻¹
- ka ([2]; 25° C.): 1.14e+06 M⁻¹ s⁻¹
- Kd ([2]; 25° C.): 0.0333 nM
- t½ ([2]; 25° C.): 5.08 h
- kd ([2]; 37° C.): 1.00E−05* s^−1
- ka ([2]; 37° C.): 2.73e+06 M⁻¹ s⁻¹
- Kd ([2]; 37° C.): 0.00366 nM
- t½ ([2]; 37° C.): 19.25 h
- Ratio of 11 nM Antibody Binding Signal (RLU) to isotype control, PMA-treated THP-1 [3]: 6
B3: H1H21227N-N297D: "The 21227N antibody was also produced as a third version with a N297D mutation" (antibody, V domains shown)
VH: B2 VH
VL: B1 VL with F7S, S31N, F32Y, F36Y, F46L, A50T, P80T, S94N, P95F
- Ratio of 11 nM Antibody Binding Signal (RLU) to isotype control, HEK293 (parental HEK293 cells): 1

— patent US12497460B2, “Anti-MSR1 antibodies and methods of use thereof” (REGENERON PHARMACEUTICALS, INC., priority 2018, dated 2025)
